Results as given in the supplement of paper PMC9112550, “Optimization of the antimicrobial peptide Bac7 by deep mutational scanning” (BMC Biology, 2022).

Each sequence was assayed on Escherichia coli TOP10 (assay: shrunken log2 fold change of peptide-encoding DNA abundance (4.5 h post-induction vs induction); higher = less antimicrobial activity (less host growth inhibition)). Details: time post-induction: 4.5 h; library: site-saturation at positions 5, 18, 19, 20.
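Note: peptides expressed intracellularly from a pBAD plasmid library in pooled LB shake-flask culture, induced with 0.3% L-arabinose, DNA abundance read by NGS, three biological replicates, DESeq2 with apeglm shrinkage.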

| Sequence | shrunken log2 fold change |
| --- | --- |
| RRIRARPPRLPRPRPRPYAPPRP | 0.162 |
| RRIRARPPRLPRPRPRPYCHPRP | -0.381 |
| RRIRARPPRLPRPRPRPYCKPRP | -0.376 |
| RRIRARPPRLPRPRPRPYCRPRP | -0.885 |
| RRIRARPPRLPRPRPRPYCSPRP | 0.0743 |
| RRIRARPPRLPRPRPRPYDEPRP | -0.0107 |
| RRIRARPPRLPRPRPRPYDPPRP | -0.406 |
| RRIRARPPRLPRPRPRPYGKPRP | -0.747 |
| RRIRARPPRLPRPRPRPYGLPRP | 0.0316 |
| RRIRARPPRLPRPRPRPYHLPRP | -0.0107 |
| RRIRARPPRLPRPRPRPYIPPRP | -0.805 |
| RRIRARPPRLPRPRPRPYKYPRP | -0.227 |
| RRIRARPPRLPRPRPRPYMYPRP | -0.635 |
| RRIRARPPRLPRPRPRPYNQPRP | -0.306 |
| RRIRARPPRLPRPRPRPYQWPRP | -0.0841 |
| RRIRARPPRLPRPRPRPYRFPRP | 0.0859 |
| RRIRARPPRLPRPRPRPYRGPRP | -0.213 |
| RRIRARPPRLPRPRPRPYTQPRP | -0.593 |
| RRIRARPPRLPRPRPRPYTVPRP | -0.306 |
| RRIRARPPRLPRPRPRPYVGPRP | 0.0297 |
| RRIRARPPRLPRPRPRPYWFPRP | -0.775 |
| RRIRARPPRLPRPRPRPYWNPRP | -0.566 |
| RRIRARPPRLPRPRPRPYYRPRP | -0.183 |
| RRIRCRPPRLPRPRPRPAALPRP | 0.219 |
| RRIRCRPPRLPRPRPRPAAQPRP | 0.394 |

| Sequence | shrunken log2 fold change |
| --- | --- |
| RRIRCRPPRLPRPRPRPAAVPRP | 0.346 |
| RRIRCRPPRLPRPRPRPACGPRP | 0.323 |
| RRIRCRPPRLPRPRPRPACTPRP | -0.00637 |
| RRIRCRPPRLPRPRPRPACVPRP | 0.211 |
| RRIRCRPPRLPRPRPRPADAPRP | 1.44 |
| RRIRCRPPRLPRPRPRPAFEPRP | 0.0704 |
| RRIRCRPPRLPRPRPRPAGVPRP | 0.259 |
| RRIRCRPPRLPRPRPRPAHFPRP | 0.147 |
| RRIRCRPPRLPRPRPRPAHSPRP | -0.129 |
| RRIRCRPPRLPRPRPRPAINPRP | -0.606 |
| RRIRCRPPRLPRPRPRPAKRPRP | 0.0702 |
| RRIRCRPPRLPRPRPRPALHPRP | 0.179 |
| RRIRCRPPRLPRPRPRPAMLPRP | 0.0443 |
| RRIRCRPPRLPRPRPRPAMRPRP | 0.509 |
| RRIRCRPPRLPRPRPRPANKPRP | 0.361 |
| RRIRCRPPRLPRPRPRPANQPRP | -0.137 |
| RRIRCRPPRLPRPRPRPAPHPRP | 0.625 |
| RRIRCRPPRLPRPRPRPAPMPRP | 0.308 |
| RRIRCRPPRLPRPRPRPAPPPRP | 0.743 |
| RRIRCRPPRLPRPRPRPARNPRP | -0.182 |
| RRIRCRPPRLPRPRPRPARTPRP | 0.359 |
| RRIRCRPPRLPRPRPRPASKPRP | -0.438 |
| RRIRCRPPRLPRPRPRPASPPRP | 0.117 |
| RRIRCRPPRLPRPRPRPAVQPRP | -0.0829 |
| RRIRCRPPRLPRPRPRPAYMPRP | 0.119 |

| Sequence | shrunken log2 fold change |
| --- | --- |
| RRIRCRPPRLPRPRPRPCAFPRP | -0.311 |
| RRIRCRPPRLPRPRPRPCCGPRP | -0.0934 |
| RRIRCRPPRLPRPRPRPCCIPRP | -0.166 |
| RRIRCRPPRLPRPRPRPCCSPRP | -0.321 |
| RRIRCRPPRLPRPRPRPCDAPRP | -0.466 |
| RRIRCRPPRLPRPRPRPCDTPRP | -0.0925 |
| RRIRCRPPRLPRPRPRPCFGPRP | -0.137 |
| RRIRCRPPRLPRPRPRPCFNPRP | 0.713 |
| RRIRCRPPRLPRPRPRPCFVPRP | -0.235 |
| RRIRCRPPRLPRPRPRPCGFPRP | -0.29 |
| RRIRCRPPRLPRPRPRPCGHPRP | -0.101 |
| RRIRCRPPRLPRPRPRPCGQPRP | 0.143 |
| RRIRCRPPRLPRPRPRPCHNPRP | -0.734 |
| RRIRCRPPRLPRPRPRPCILPRP | -1.1 |
| RRIRCRPPRLPRPRPRPCIQPRP | 0.0591 |
| RRIRCRPPRLPRPRPRPCLRPRP | -0.229 |
| RRIRCRPPRLPRPRPRPCLVPRP | -0.463 |
| RRIRCRPPRLPRPRPRPCMFPRP | -0.625 |
| RRIRCRPPRLPRPRPRPCNAPRP | -0.448 |
| RRIRCRPPRLPRPRPRPCNEPRP | -0.514 |
| RRIRCRPPRLPRPRPRPCNYPRP | -1.4 |
| RRIRCRPPRLPRPRPRPCPHPRP | -0.235 |
| RRIRCRPPRLPRPRPRPCQAPRP | -0.244 |
| RRIRCRPPRLPRPRPRPCQGPRP | -0.0713 |
| RRIRCRPPRLPRPRPRPCRKPRP | -0.0115 |
